Reference: article PMC4842197, “Preclinical in vivo application of ^152Tb-DOTANOC: a radiolanthanide for PET imaging” (EJNMMI Research, 2016)
Bridge positions count the residues as written; N and C are the ends. Square brackets hold non-standard residues; d marks the D form. Peptide text beside a SMILES is read from it. * marks the point of attachment. DOTA = O=C(O)CN1CCN(CC(=O)O)CCN(CC(=O)*)CCN(CC(=O)O)CC1; 1Nal = N[C@@H](Cc1cccc2ccccc12)C(=O)O; Thr(ol) = C[C@@H](O)[C@H](N)CO

Assays:
[1] = in vivo; conditions: female, CD-1 Foxn-1/nu nude, mouse, iv, total radioactivity, Biodistribution
Method: (§1) AR42J tumor cells, a rat exocrine pancreatic tumor cell line which is known to express the somatostatin receptor, were obtained from the European Collection of Cell Cultures (ECACC). The cells were cultured in RPMI 1640 medium, supplemented with 10 % fetal calf serum, L-glutamine, and antibiotics under standard conditions in a humidified atmosphere with 5 % CO2 at 37 °C. Routine culture was performed by trypsinization of the cells twice a week. To inoculate the animals, the cells were detached using trypsin, centrifuged, and resuspended in PBS at a concentration of 5 × 10^6 cells/100 μL.
(§2) In vivo experiments were approved by the local veterinary department and conducted in accordance with the Swiss law of animal protection. Female nude mice (CD-1 Foxn-1/nu) were purchased from Charles River Laboratories (Sulzfeld, Germany). The animals were fed with a standard rodent chow ad libitum (Kliba Nafag, Kaiseraugst, Switzerland).
(§3) About 2 weeks prior to biodistribution and imaging studies, the mice were inoculated with AR42J tumor cells by subcutaneous injection of the cell suspension (5 × 10^6 cells/100 μL) on each shoulder.
(§4) Mice were euthanized at pre-determined time points between 30 min and 22 h after injection of the radioconjugate. […] Selected tissues and organs were collected, weighed, and counted for radioactivity using a γ-counter (Packard Canberra Cobra II, USA). The results were listed as a percentage of the injected activity per gram of tissue mass (% IA/g), using counts of a defined volume of the original injection solution measured at the same time.

[2] = system: AR42J tumor-bearing mice; experiment: in vivo; conditions: female, CD-1 Foxn-1/nu nude, mouse, iv, 5 nmol per mouse, 5 h
Method: as §1, §2, §3, §4

[3] = 2.5 nmol per mouse (5 MBq), AR42J tumor
[4] = 2.5 nmol per mouse (5 MBq), Blood
[5] = 2.5 nmol per mouse (5 MBq), Bone
[6] = 2.5 nmol per mouse (5 MBq), Brain
[7] = 2.5 nmol per mouse (5 MBq), Heart
[8] = 2.5 nmol per mouse (5 MBq), Lung

With `C[C@@H](O)[C@@H]1NC(=O)[C@H](CCCCN)NC(=O)[C@@H](Cc2c[nH]c3ccccc23)NC(=O)[C@H](Cc2cccc3ccccc23)NC(=O)[C@@H](NC(=O)[C@@H](Cc2ccccc2)NC(=O)CN2CCN(CC(=O)O)CCN(CC(=O)O)CCN(CC(=O)O)CC2)CSSC[C@@H](C(=O)N[C@H](CO)[C@@H](C)O)NC1=O` [^177Lu-DOTANOC, metal not drawn] ({DOTA}-[dF]C[1Nal][dW]KTC[Thr(ol)]; disulfide 2-7) the tissue uptake at 5 h ([1]; 0.5 nmol peptide, Adrenals) was 0.7 ± 0.13 %ID/g, the tissue uptake at 5 h ([1]; 0.5 nmol peptide, Kidneys) was 6.63 ± 0.1 %ID/g and the tissue uptake at 5 h ([1]; 0.5 nmol peptide, Lung) was 1.18 ± 0.36 %ID/g. It also gave a tissue uptake at 5 h ([1]; 0.5 nmol peptide, Spleen) of 0.24 ± 0.03 %ID/g, a tissue uptake at 5 h ([1]; 0.5 nmol per mouse, AR42J Tumor) of 25.3 ± 4.14 %ID/g and a tissue uptake at 5 h ([1]; 0.5 nmol, Blood) of 0.09 ± 0.01 %ID/g. The tissue uptake at 5 h ([1]; 0.5 nmol, Bone) was 0.33 ± 0.08 %ID/g, the tissue uptake at 5 h ([1]; 0.5 nmol, Brain) was 0.01 %ID/g and the tissue uptake at 5 h ([1]; 0.5 nmol, Heart) was 0.08 ± 0.01 %ID/g. For the same molecule, the tissue uptake at 5 h ([1]; 0.5 nmol, Liver) was 0.34 ± 0.01 %ID/g, the tissue uptake at 5 h ([1]; 0.5 nmol, Muscle) was 0.02 ± 0.01 %ID/g and the tissue uptake at 5 h ([1]; 0.5 nmol, Stomach) was 3.78 ± 0.28 %ID/g. It also gave a tissue uptake at 0.5 h [1, 3] of 9.02 ± 0.33 %ID/g, a tissue uptake at 2 h [1, 3] of 8.32 ± 0.47 %ID/g and a tissue uptake at 5 h [1, 3] of 8.45 ± 1.04 %ID/g. It also gave a tissue uptake at 16 h [1, 3] of 5.48 ± 0.98 %ID/g, a tissue uptake at 22 h [1, 3] of 4.51 ± 0.37 %ID/g and a tissue uptake at 0.5 h [1, 4] of 2.52 ± 0.65 %ID/g. For the same molecule, the tissue uptake at 2 h [1, 4] was 0.09 ± 0.01 %ID/g, the tissue uptake at 5 h [1, 4] was 0.06 ± 0.01 %ID/g and the tissue uptake at 16 h [1, 4] was 0.07 ± 0.01 %ID/g. The tissue uptake at 22 h [1, 4] was 0.03 %ID/g, the tissue uptake at 16 h [1, 5] was 0.12 ± 0.05 %ID/g and the tissue uptake at 22 h [1, 5] was 0.08 ± 0.01 %ID/g. For the same molecule, the tissue uptake at 0.5 h [1, 6] was 0.06 ± 0.01 %ID/g, the tissue uptake at 2 h [1, 6] was 0.01 %ID/g and the tissue uptake at 5 h [1, 6] was 0.02 %ID/g. The tissue uptake at 16 h [1, 6] was 0.02 ± 0.01 %ID/g, the tissue uptake at 22 h [1, 6] was 0.01 %ID/g and the tissue uptake at 0.5 h [1, 7] was 1.34 ± 0.35 %ID/g. It also gave a tissue uptake at 2 h [1, 7] of 0.08 ± 0.01 %ID/g, a tissue uptake at 5 h [1, 7] of 0.07 ± 0.01 %ID/g and a tissue uptake at 16 h [1, 7] of 0.07 ± 0.01 %ID/g. It also gave a tissue uptake at 22 h [1, 7] of 0.03 %ID/g, a tissue uptake at 0.5 h [1, 8] of 3.04 ± 0.47 %ID/g and a tissue uptake at 2 h [1, 8] of 0.45 ± 0.03 %ID/g. For the same molecule, the tissue uptake at 5 h [1, 8] was 0.41 ± 0.04 %ID/g, the tissue uptake at 0.5 h ([1]; 2.5 nmol per mouse, Adrenals) was 1.38 ± 0.32 %ID/g and the tissue uptake at 2 h ([1]; 2.5 nmol per mouse, Adrenals) was 0.28 ± 0.14 %ID/g. For the same molecule, the tissue uptake at 16 h ([1]; 2.5 nmol per mouse, Adrenals) was 0.51 ± 0.4 %ID/g, the tissue uptake at 22 h ([1]; 2.5 nmol per mouse, Adrenals) was 0.42 ± 0.18 %ID/g and the tissue uptake at 0.5 h ([1]; 2.5 nmol per mouse, Bone) was 1.13 ± 0.26 %ID/g. The tissue uptake at 2 h ([1]; 2.5 nmol per mouse, Bone) was 0.17 ± 0.01 %ID/g, the tissue uptake at 5 h ([1]; 2.5 nmol per mouse, Bone) was 0.12 ± 0.02 %ID/g and the tissue uptake at 0.5 h ([1]; 2.5 nmol per mouse, Intestines) was 0.94 ± 0.12 %ID/g. For the same molecule, the tissue uptake at 2 h ([1]; 2.5 nmol per mouse, Intestines) was 0.25 ± 0.04 %ID/g, the tissue uptake at 5 h ([1]; 2.5 nmol per mouse, Intestines) was 0.25 ± 0.03 %ID/g and the tissue uptake at 16 h ([1]; 2.5 nmol per mouse, Intestines) was 0.16 ± 0.01 %ID/g. The tissue uptake at 0.5 h ([1]; 2.5 nmol per mouse, Kidneys) was 13 ± 1.85 %ID/g, the tissue uptake at 2 h ([1]; 2.5 nmol per mouse, Kidneys) was 7.67 ± 0.51 %ID/g and the tissue uptake at 5 h ([1]; 2.5 nmol per mouse, Kidneys) was 9.1 ± 1.66 %ID/g. For the same molecule, the tissue uptake at 16 h ([1]; 2.5 nmol per mouse, Kidneys) was 6.13 ± 1.63 %ID/g, the tissue uptake at 22 h ([1]; 2.5 nmol per mouse, Kidneys) was 4.8 ± 0.19 %ID/g and the tissue uptake at 0.5 h ([1]; 2.5 nmol per mouse, Liver) was 1.43 ± 0.17 %ID/g. It also gave a tissue uptake at 2 h ([1]; 2.5 nmol per mouse, Liver) of 0.52 ± 0.04 %ID/g, a tissue uptake at 5 h ([1]; 2.5 nmol per mouse, Liver) of 0.53 ± 0.1 %ID/g and a tissue uptake at 16 h ([1]; 2.5 nmol per mouse, Liver) of 0.27 ± 0.05 %ID/g. The tissue uptake at 22 h ([1]; 2.5 nmol per mouse, Liver) was 0.2 ± 0.02 %ID/g, the tissue uptake at 16 h ([1]; 2.5 nmol per mouse, Lung) was 0.27 ± 0.05 %ID/g and the tissue uptake at 0.5 h ([1]; 2.5 nmol per mouse, Muscle) was 0.48 ± 0.16 %ID/g. It also gave a tissue uptake at 2 h ([1]; 2.5 nmol per mouse, Muscle) of 0.02 %ID/g, a tissue uptake at 5 h ([1]; 2.5 nmol per mouse, Muscle) of 0.02 ± 0.01 %ID/g and a tissue uptake at 16 h ([1]; 2.5 nmol per mouse, Muscle) of 0.03 %ID/g. It also gave a tissue uptake at 22 h ([1]; 2.5 nmol per mouse, Muscle) of 0.01 %ID/g, a tissue uptake at 0.5 h ([1]; 2.5 nmol per mouse, Pancreas) of 1.99 ± 0.07 %ID/g and a tissue uptake at 2 h ([1]; 2.5 nmol per mouse, Pancreas) of 1.09 ± 0.17 %ID/g. It also gave a tissue uptake at 5 h ([1]; 2.5 nmol per mouse, Pancreas) of 0.88 ± 0.11 %ID/g, a tissue uptake at 16 h ([1]; 2.5 nmol per mouse, Pancreas) of 0.34 ± 0.05 %ID/g and a tissue uptake at 22 h ([1]; 2.5 nmol per mouse, Pancreas) of 0.25 ± 0.03 %ID/g. For the same molecule, the tissue uptake at 0.5 h ([1]; 2.5 nmol per mouse, Spleen) was 0.77 ± 0.03 %ID/g, the tissue uptake at 5 h ([1]; 2.5 nmol per mouse, Spleen) was 0.18 ± 0.02 %ID/g and the tissue uptake at 22 h ([1]; 2.5 nmol per mouse, Spleen) was 0.09 ± 0.01 %ID/g. It also gave a tissue uptake at 0.5 h ([1]; 2.5 nmol per mouse, Stomach) of 1.95 ± 0.23 %ID/g, a tissue uptake at 2 h ([1]; 2.5 nmol per mouse, Stomach) of 1.14 ± 0.04 %ID/g and a tissue uptake at 5 h ([1]; 2.5 nmol per mouse, Stomach) of 1.21 ± 0.55 %ID/g. For the same molecule, the tissue uptake at 16 h ([1]; 2.5 nmol per mouse, Stomach) was 0.68 ± 0.09 %ID/g, the tissue uptake at 22 h ([1]; 2.5 nmol per mouse, Stomach) was 0.6 ± 0.22 %ID/g and the tissue uptake at 5 h ([1]; 5 nmol peptide, Adrenals) was 0.18 ± 0.05 %ID/g. For the same molecule, the tissue uptake at 5 h ([1]; 5 nmol peptide, Kidneys) was 7 ± 0.69 %ID/g, the tissue uptake at 5 h ([1]; 5 nmol peptide, Lung) was 0.28 ± 0.01 %ID/g and the tissue uptake at 5 h ([1]; 5 nmol peptide, Spleen) was 0.11 ± 0.02 %ID/g. For the same molecule, the tissue uptake at 5 h ([1]; 5 nmol per mouse, AR42J Tumor) was 3.82 ± 0.2 %ID/g, the tissue uptake at 5 h ([1]; 5 nmol, Blood) was 0.06 ± 0.01 %ID/g and the tissue uptake at 5 h ([1]; 5 nmol, Bone) was 0.09 ± 0.02 %ID/g. For the same molecule, the tissue uptake at 5 h ([1]; 5 nmol, Brain) was 0.01 %ID/g, the tissue uptake at 5 h ([1]; 5 nmol, Heart) was 0.06 %ID/g and the tissue uptake at 5 h ([1]; 5 nmol, Intestines) was 0.14 ± 0.01 %ID/g. The tissue uptake at 5 h ([1]; 5 nmol, Liver) was 0.36 ± 0.04 %ID/g, the tissue uptake at 5 h ([1]; 5 nmol, Muscle) was 0.02 %ID/g and the tissue uptake at 5 h ([1]; 5 nmol, Pancreas) was 0.41 ± 0.01 %ID/g. The tissue uptake at 5 h ([1]; 5 nmol, Stomach) was 0.41 ± 0.05 %ID/g and the “Biodistribution, AR42J Tumor” value [2] was ~ 4 % IA/g.
